Fold stimulation of the apparent ATPase rate of UAP56 with RNA and ATP (NADH-coupled assay) and fold reduction of affinity against UAP56 data for three substances are collected here from publication PMC13391367.

In test [1] the target is UAP56 (10×His–3C–UAP56) (UniProt Q13838).
Test [2] addresses LENG8–PS^M (10×His–MBP–LENG8^491–800, 3×V5–PCID2, SEM1) (human) (UniProt Q96PV6). Nature of the test: grating-coupled interferometry; V5-tagged LENG8–PS^M or SAC3D1–PS^M captured on an amine-coupled anti-V5 antibody (Creoptix WAVE, 4PCP chip); UAP56 injected as a 1:2 dilution series from 5 µM, with or without 200 µM 15U RNA, 25 mM HEPES pH 7.9, 50 mM KCl, 1 mM MgCl2, 1 mM TCEP, with and without 1 mM ATP, 25 °C; one-to-one model.

For test [3], the target named is SAC3D1–PS^M (10×His–MBP–SAC3D1^48–404, 3×V5–PCID2, SEM1) (human) (UniProt A6NKF1). The test is described as above.

UAP56(Δ1–43) (10×His–3C–UAP56(Δ1–43), residues 44–428), sequence (Q13838 44-428, stated change not applied): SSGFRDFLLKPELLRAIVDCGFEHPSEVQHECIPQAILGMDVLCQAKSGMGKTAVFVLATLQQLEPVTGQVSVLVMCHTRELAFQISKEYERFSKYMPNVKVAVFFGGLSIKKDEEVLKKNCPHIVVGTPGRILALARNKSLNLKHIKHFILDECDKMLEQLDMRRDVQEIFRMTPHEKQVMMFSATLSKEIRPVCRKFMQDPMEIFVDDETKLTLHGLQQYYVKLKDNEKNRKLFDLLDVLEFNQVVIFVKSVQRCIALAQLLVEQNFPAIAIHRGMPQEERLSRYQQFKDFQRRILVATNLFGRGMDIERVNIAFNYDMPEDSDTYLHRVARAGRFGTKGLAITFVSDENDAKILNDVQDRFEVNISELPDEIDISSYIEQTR
UAP56 (10×His–3C–UAP56), sequence (Q13838 whole entry): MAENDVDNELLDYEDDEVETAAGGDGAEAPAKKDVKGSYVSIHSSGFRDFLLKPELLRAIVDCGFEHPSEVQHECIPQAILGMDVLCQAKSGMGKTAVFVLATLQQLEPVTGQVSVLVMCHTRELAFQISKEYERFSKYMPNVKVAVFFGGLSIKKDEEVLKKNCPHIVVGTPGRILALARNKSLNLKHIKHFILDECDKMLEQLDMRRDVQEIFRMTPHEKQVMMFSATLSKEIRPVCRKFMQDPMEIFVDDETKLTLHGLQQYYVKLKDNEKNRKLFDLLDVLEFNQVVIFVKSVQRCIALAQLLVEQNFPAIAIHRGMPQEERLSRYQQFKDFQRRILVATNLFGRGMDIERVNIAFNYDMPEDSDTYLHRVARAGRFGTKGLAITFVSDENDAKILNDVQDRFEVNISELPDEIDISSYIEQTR

Take “LENG8–PS^M (10×His–MBP–LENG8^491–800, 3×V5–PCID2, SEM1) (from UniProt Q96PV6 491-800; Q5JVF3 1-399; P60896 1-70) (complex)”: the fold stimulation of the apparent ATPase rate of UAP56 with RNA and ATP (NADH-coupled assay) in test [1] stood at 290 fold.

As for “UAP56(Δ1–43) (10×His–3C–UAP56(Δ1–43), residues 44–428) (from UniProt Q13838 44-428) (domain or fragment)”, the fold reduction of affinity against UAP56 in test [2] and in test [3] was over 30 fold in each case.

“SAC3D1–PS^M (10×His–MBP–SAC3D1^48–404, 3×V5–PCID2, SEM1) (from UniProt A6NKF1 48-404; Q5JVF3 1-399; P60896 1-70) (complex)”: in test [1], the fold stimulation of the apparent ATPase rate of UAP56 with RNA and ATP (NADH-coupled assay) amounted to 60 fold.
